Assay: soluble on expression in E. coli; label from the status in PepcDB or PDB records

Sequence	soluble on expression in E. coli
MRQIKVVLIGGGTGLSVMARGLREFPIDITAIVTVADNGGSTGKIRDEMDIPAPGDIRNVIAALSDSESVLSQLFQYRFEENQISGHSLGNLLIAGMTNITNDFGHAIKALSKILNIKGRVIPSTNTSVQLNAVMEDGEIVFGETNIPKKHKKIDRVFLEPNDVQPMEEAIDALREADLIVLGPGSLYTSVISNLCVNGISDALIHSDAPKLYVSNVMTQPGETDGYSVKDHIDAIHRQAGQPFIDYVICSTQTFNAQVLKKYEEKHSKPVEVNKAELEKESINVKTSSNLVEISENHLVRHNTKVLSTMIYDIALELISTIPFVPSDKRK	not soluble
MRRAFITGVFFLSEVEFSHEYWMRHALTLAKRAWDEREVPVGAVLVHNNRVIGEGWNRPIGRHDPTAHAEIMALRQGGLVMQNYRLIDATLYVTLEPCVMCAGAMIHSRIGRVVFGARDAKTGAAGSLMDVLHHPGMNHRVEITEGILADECAALLSDFFRMRRQEIKAQKKAQSSTD	soluble
MRREILVAAAILLDSRGRVLLVGNDWGRRGRVRYTLPGGTVEPGETAVEALVREVREETGLRVRSVEHLAYVIQVEDRRKNERTLAMAFRATYEGLLNPRDPDGHIVEARFFTLEEVEERLKGHLPLLEPLRAYLRGERGRFYAYAGWHAPGVVV	soluble
MRRGPARAAALHRAFSLHGKIAAMQRPASSSLPPLDPAASAHSASVARHLRAAIAAAGGWLPFSQWMSAALYAPGLGYYTAGATKLASPADAQGPALPAGDFVTAPELTPLFAATVARQIAQVLRATDTASVLEFGAGTGALAEGVLRALAGLDCPARYLIVEVSADLRQRQQSRLAPFGDRVQWLDQLPDAFAGCVLGNEVLDAMPATLFRWSETGVVQERGVTVDANGEFAWQDRDADAPLAQAVAQRMPPLPGYVSEINLQAEAWVRSMGLWLQRGAALLLDYGFPRSEYYHPQRAGGTLMCHLRHHAHADPFAAPGLQDITSHVDFTAMADAALAGGLQVLGYLSQARFLVNAGLLDALSQLDPADARAYAQAVAPVQKLLSEAEMGELFKVLAVGRDMPEPLLGFARGDRRGTL	not soluble
MRRGSGNPERPSLSRDGLRVPPPCPGKRGPGHFSGYHGGMEGIRRAAQRAAEEFLQAFPMAPGSLFVLGGSTSEVLGERVGTRPSLEAAHAVLEGLLPPLLERGVHVAVQACEHLNRALVVERETARAFGLEEVAVFPHPKAGGALATAAFLRFRDPVMVESLKAQAHGGMDIGGVLIGMHLRPVAVPLRLSVRKIGEAVLLAAKTRPKLVGGARAVYTREEMLKKLEEFLPKPP	soluble
MRRVTTLLVMMLTVLSACQASPKASPTKPGNAMSNNHPQNPYYSRTDTTRLDLPNEVWKKVLSPELYAVARLAETERAFTGKYWNYEGLGTYYCAACGNTLFRSDAKFASTCGWPSFFETVRPGSVAYREDTSFGMVRTEVLCGRCGAHLGHVFDDGPPPTGKRFCMNSICLDFEPDQPETAKPQ	soluble
MRSDVIKKGLERVPHRSLLKALGITDDEMRRPFIGIVSSWNEIIPGHVHLDKVVEAVKAGVRMAGGVPFVFPTIGICDGIAMDHRGMKFSLPSRELIADSIEIVASGFPFDGLVFVPNCDKITPGMMMAMGRLNIPSVLISGGPMLAGRYNGRDIDLITVFEAVGGYKVGKVDEETLKAIEDLACPGAGSCAGLFTANTMNSLAEALGIAPRGNGTVPAVHAKRLRMAKEAGMLVVELVKRDVKPRDIVTLDSFMNAVMVDLATGGSTNTVLHLKAIAESFGIDFDIKLFDELSRKIPHICNISPVGPYHIQDLDDAGGIYAVMKRLQENGLLKEDVMTIYLRKIGDLVREAKILNEDVIRPFDNPYHKEGGLGILFGNLAPEGAVAKLSGVPEKMMHHVGPAVVFEDGEEATKAILSGKIKKGDVVVIRYEGPKGGPGMREMLSPTSAIVGMGLAEDVALITDGRFSGGSHGAVIGHVSPEAAEGGPIGIVKDGDLIEIDFEKRTLNLLISDEEFERRMKEFTPLVKEVDSDYLRRYAFFVQSASKGAIFRKPAAALEHHHHHH	soluble
MRSIFLLHFDYKTCEEEDFEDWNLADGKCLNGAKYMYKRRKQDARCLVKRTFKDMILHEIPCDSCTESDYECSSEFVRDAKGDCIPDYDQIALSDICDKANGETVSLEPLQLIKGDKCKKPMEIEAMNIPCEKILRESSNGKKIATIENKFDFEI	not soluble
MRTAEFWIGRLGLERHPEGGWYRETYRSEGSYGFNGNSPFGSPRSYATSIFYLLEHGDRSRLHRIRSDEQWYFHAGSPLDVHCFPETGDPSLFTLGDDPNAGQVLHSWVSAGHWFGASLSEQADAPGTYALVSCVVAPGFDFRDLTFADPAALTAQFPAHAQIIEKLSLEHHHHHH	soluble
MRTITFNELRKIKDSLPSGSMHRIADELGLHVDTVRNFFGGHNFKEGKSVGIHLEPGPDGGLVMLDDTTVLDRALKILDEINMSMQKEQATEPMQI	not soluble
MRTRLLAILLAVWPAACATAEPACRDLTFEDTRYSLCEAQAGDDIRIFQTAPDGRPYGSFERINSALEGEGRQLAFAMNAGMYHADRRPVGLLIEEEVERAPLVTSAGPGNFGLLPNGVFCVGDGFRVIESRAFAAERPTCRHASQSGPMLVIGGELHPRFLVDSDSRYIRNGVGVSADGRRAVFAISNRPVTFHEFGRLFRDELGLPEALYFDGSISRLYDRGARRSDWGTPMGPIVGLVVPKPLEHHHHHH	not soluble
MRTRSGSAEFSGPLRSVAILAQEKLGDCVLLTPLVRNLRQAFPDLEIHLITFSRASANFFMNDPQVTAVHLVKKQPRRYFREVLSRKFDLLFNTKDHPSTWFLLQSALIRARFKVGHNNPFHEGLYDRLLDTEFHAHMAVKNCALLPLLGVTADTEACRPSLEHHHHHH	soluble
MRVAVDAMGGDNAPAVEVEGAVVAAREFGIPITLVGDTEKLRLELAKHNVQGLDIAIHHASEVVGMHDAASDAVRRKKDSSIRVAFDLVKSGEAEAVVSAGNSGATMAAGMFVLKRLKGIDRPAIAQIFPTLRGKTLVLDVGGNVDCKPIHLVQFAIMGEVYARHVIGVEQPRIGLLSNGEEDSKGNELTRETNAILKNISFDYEGYVEGRDIFNGMVDVVVCDGFVGNVVLKLSEGLAETVGKMLREEIASSLLSKLGYLFVRKAFKNFKKKVDYAEYGGAPLIGINGVAMICHGGSNVKAIKNAIHFAHEYVRKGVNQRLAEKMETEFTAYMQQFDAVKEAVAG	not soluble
MRVDAIAKVTGRARYTDDYVMAGMCYAKYVRSPIAHGYAVSINDEQARSLPGVLAIFTWEDVPDIPFATAGHAWTLDENKRDTADRALLTRHVRHHGDAVAIVVARDELTAEKAAQLVSIEWQELPVITTPEAALAEDAAPIHNGGNLLKQSTMSTGNVQQTIDAADYQVQGHYQTPVIQHCHMESVTSLAWMEDDSRITIVSSTQIPHIVRRVVGQALDIPWSCVRVIKPFVGGGFGNKQDVLEEPMAAFLTSKLGGIPVKVSLSREECFLATRTRHAFTIDGQMGVNRDGTLKGYSLDVLSNTGAYASHGHSIASAGGNKVAYLYPRCAYAYSSKTCYTNLPSAGAMRGYGAPQVVFAVESMLDDAATALGIDPVEIRLRNAAREGDANPLTGKRIYSAGLPECLEKGRKIFEWEKRRAECQNQQGNLRRGVGVACFSYTSNTWPVGVEIAGARLLMNQDGTINVQSGATEIGQGADTVFSQMVAETVGVPVSDVRVISTQDTDVTPFDPGAFASRQSYVAAPALRSAALLLKEKIIAHAAVMLHQSAMNLTLIKGHIVLVERPEEPLMSLKDLAMDAFYHPERGGQLSAESSIKTTTNPPAFGCTFVDLTVDIALCKVTINRILNVHDSGHILNPLLAEGQVHGGMGMGIGWALFEEMIIDAKSGVVRNPNLLDYKMPTMPDLPQLESAFVEINEPQSAYGHKSLGEPPIIPVAAAIRNAVKMATGVAINTLPLTPKRLYEEFHLAGLI	soluble
MRVDVVSRDIIKPSSPTPNHLKKFKLSLLEQLGPTIFGPMVFFYSANNSIKPTEQLQMLKKSLSETLTHFYPLAGRLKGNISIDCNDSGADFLEARVNSPLSNLLLEPSSDSLQQLIPTSVDSIETRTRLLLAQASFFECGSMSIGVCISHKLADATSIGLFMKSWAAISSRGSIKTIGAPVFDTVKIFPPGNFSETSPAPVVEPEIMMNQTLSKRFIFDSSSIQALQAKASSFEVNQPTRVEAVSALIWKSAMKATRTVSGTSKPSILANSVSLRSRVSPPFTKNSIGNLVSYFAAKAEEGINQTKLQTLVSKIRKAKQRFRDIHIPKLVGNPNATEIICSYQKEAGDMIASGDFDFYIFSSACRFGLYETDFGWGKPVWVGFPSVRQKNIVTLLDTKEAGGIEAWVNLNEQEMNLFEQDRELLQFASLNPSVIQPFLHVL	soluble
MRVGLVHGFLSRRYLDFWRAYLEALGVEVVEAAPPPSDLPFCLPVQRLLAQVEALKEAGVDYLLLPDLQGGVESERGGGQCPWLLDLEAALLRYFPGLPPVLKVPAELSERVLGRAGEVGQLLVRNPMLVGRALDRTRRLLKPPPPLPTPQGSVGVVAQPYLLEEPAFRREVEAALRAHGLEAYFPDLPPERLREEADRLLPVDLPTDRELVGAIHYLGRLGRVKGLALVVSYACPPIPGLMRKAARRLGKPYRLLTLGEDWQEPLAALKAEMEKGNRGG	soluble
MRVLILGGTGNAAELAARVATIQGVDAITSLAGRTREPSVPLGDLRVGGFGGVAGLASYLQAMQIDLLIDATHPFASQISFNAADAAKEVGVPRLMLIRPPWEKGSGDRWMEVDNVEAAAASLQNQAHRVFLTVGRQELAAFAHLEEIWFLMRMIDPPVDDALVPPGMVLCDRGPFNLNNERQILIDRKIDTIVSKNSGGDATKPKIIAARELGVKVVMVNRPAIPPGEQVSDVEGALVWLLEKLHN	not soluble
MRVVRPEFRPAPGLDTDAMASRQRDIAAVADFADDHGLTPERIGLDEPPGEQAALGGATTSGEAAPVVVGVDQAFRDDEVSVSAAVAIRDGAVIERAAGNAPLDVPYVPGLLAFREGSAVIDALSSLSVEPDLLVVDGSGRIHYRQAGLATHVGVLFDVPAVGVAKSLLCGTPAAALADPLPAGTRVAIEADDSMDAPDGAVVGYALQSRQYPTPETRHINPLYVSPGHRVSAGTAADLVEATCTQYKLPAPTRLADQYAADLT	not soluble
MRWDIFCHVVDNYGDIGICWRLARQLVTEFDISVRMLVDDLGAMQRICPAIDPRLAVQNIRGVEILHWVEPFADLVPADVVIEAFGCELPPRYIAAMAAASPRFSEPEGKTDRIWINLEYLSAEQWVEGCHGLASPHPSLPLIKYFFFPGFTAATGGLLREAELFTLRDASRTDPAGLWRELGITNPAADEATVSLFCYDSAPISDLLEAWAGSISPVRCLLPEGTASASAASWAGISRLAAGDSIQRGNLTLHVIPFMSQENYDHLLWACDCNFVRGEDSFVRAQWAVRPIVWQIYPQQENVHLIKLEAFLDLYCQELIEPAADAVRAFHRSWNNNEQPDWNCFWKYRDVLQQHAMAWAERLAQIPNLASSLVNFCRNR	not soluble
MRWNLDPTHTSVEFAVRHMMIATVRGTMGLKEGYVETDETGKPIRVEARLDAASIHTGVADRDNHLRSPDFLDVANHPEIVFRSEKITPLGEGRYRVEGEVTIRGVTRPLAFEVETHGPAKDPWGNERIAAHFEGKLNRKDFGLTWNMPLETGGLLVGEEVRFSVDTQAVKAKEAVAQ	soluble

Reference: the DeepSol protein solubility set
